Assay results reported in paper PMC3315527 (2012).

Legend:
Toc64 (recombinant) = biological target: T1, Toc64 (recombinant) (Pisum sativum); assay: from ref 7
T1 chain: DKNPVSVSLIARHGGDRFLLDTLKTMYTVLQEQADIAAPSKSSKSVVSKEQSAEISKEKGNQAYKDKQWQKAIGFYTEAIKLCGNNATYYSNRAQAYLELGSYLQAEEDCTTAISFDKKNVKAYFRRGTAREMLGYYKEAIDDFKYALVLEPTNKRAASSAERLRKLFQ

[1] = biological target: chaperone receptors within native chloroplast membranes (dynamic TIRE); assay: native chloroplast membranes
OEP61 (recombinant) = biological target: T2, OEP61 (recombinant) (Arabidopsis thaliana); assay: from ref 7
T2 chain: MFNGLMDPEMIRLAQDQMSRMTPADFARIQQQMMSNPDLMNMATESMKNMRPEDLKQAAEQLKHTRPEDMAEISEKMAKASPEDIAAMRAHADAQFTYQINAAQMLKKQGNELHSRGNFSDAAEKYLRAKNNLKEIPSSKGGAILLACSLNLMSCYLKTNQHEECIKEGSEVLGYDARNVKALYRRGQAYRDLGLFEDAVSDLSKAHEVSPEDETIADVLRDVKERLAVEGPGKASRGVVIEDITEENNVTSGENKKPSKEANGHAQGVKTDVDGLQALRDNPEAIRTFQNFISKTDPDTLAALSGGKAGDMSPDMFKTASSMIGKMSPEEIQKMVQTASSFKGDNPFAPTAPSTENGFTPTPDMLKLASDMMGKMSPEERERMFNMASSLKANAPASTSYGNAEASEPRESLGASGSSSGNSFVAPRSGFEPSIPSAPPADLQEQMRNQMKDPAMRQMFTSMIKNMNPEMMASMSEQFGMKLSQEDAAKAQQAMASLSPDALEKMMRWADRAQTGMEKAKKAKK

B1: Hsp90-2 (At5g56030), full length (natural protein)
chain: not shown
Ka (Toc64 (recombinant)): 7.6e+08 M⁻¹ | Kd [1]: 114 nM

B2: Hsp70-1 (At5g02500), full length (natural protein)
chain: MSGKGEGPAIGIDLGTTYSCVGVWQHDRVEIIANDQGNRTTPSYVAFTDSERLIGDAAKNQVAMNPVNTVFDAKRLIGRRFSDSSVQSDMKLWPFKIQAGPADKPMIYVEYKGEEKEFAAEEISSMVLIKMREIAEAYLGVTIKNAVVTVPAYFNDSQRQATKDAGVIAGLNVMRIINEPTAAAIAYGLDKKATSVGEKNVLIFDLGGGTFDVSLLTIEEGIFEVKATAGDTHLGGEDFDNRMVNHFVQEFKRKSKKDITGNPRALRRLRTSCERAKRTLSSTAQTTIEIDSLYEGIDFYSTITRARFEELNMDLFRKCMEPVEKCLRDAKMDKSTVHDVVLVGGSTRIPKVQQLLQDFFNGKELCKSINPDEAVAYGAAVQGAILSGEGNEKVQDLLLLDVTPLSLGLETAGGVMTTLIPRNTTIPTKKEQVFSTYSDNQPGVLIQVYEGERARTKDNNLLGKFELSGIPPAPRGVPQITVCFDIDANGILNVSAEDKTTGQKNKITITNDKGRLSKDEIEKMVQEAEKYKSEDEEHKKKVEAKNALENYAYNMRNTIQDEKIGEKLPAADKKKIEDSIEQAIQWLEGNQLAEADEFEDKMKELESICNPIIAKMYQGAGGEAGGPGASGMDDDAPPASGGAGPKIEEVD
Ka (OEP61 (recombinant)): 1.03e+09 M⁻¹ | Kd [1]: 109 nM
